pKd: −log10 of the molar value.
System: RsmA (His6-Thb-RsmA) (Pseudomonas aeruginosa)
Assay: EMSA
Conditions: 17 nt 3' extension hybridized to DNA primer

## RsmW sRNA, 3'-extended, labeled
  pKd: 7.94

— publication PMC4950607
